We go through two substances from article PMC7170241.

Experiment [1] has as its target MamB_(BW-1) cytosolic C-terminal domain (CTD), residues 190-270 (Desulfamplus magnetovallimortis strain BW-1) (UniProt G8IQT4). In words: SEC; preparative size-exclusion chromatography after Ni-NTA; HiLoad 26/60 Superdex 75; buffer E (20 mM Tris-HCl pH 8, 150 mM NaCl, 5 mM beta-mercaptoethanol).
Experiment [2] concerns the target MamM_(BW-1) cytosolic C-terminal domain (CTD), residues 213-293 (Desulfamplus magnetovallimortis strain BW-1). The experiment is described as above.

Substance “MamB_(BW-1) cytosolic C-terminal domain (CTD), residues 190-270 (from UniProt G8IQT4 190-270) (domain or fragment)” showed a stoichiometry N in experiment [1] of 2.

Substance “MamM_(BW-1) cytosolic C-terminal domain (CTD), residues 213-293 (domain or fragment)” yielded a stoichiometry N in experiment [2] of 2.
